# Data taken from article PMC7544158 (Nature structural & molecular biology, 2020).
# Read-outs that look alike come from different tables or passages of the source. Where no end group is shown, it is not given here. The star is where a group is joined. FITC = O=C1OC2(c3ccc(O)cc3Oc3cc(O)ccc32)c2ccc(NC(=S)*)cc21
# T1: BFL-1ΔC C55 (N-His6 BFL-1ΔC (1–151) bearing C4S/C19S mutations) (human, UniProt Q16548 1-151, C4S | C19S)
# T1 sequence (looked up): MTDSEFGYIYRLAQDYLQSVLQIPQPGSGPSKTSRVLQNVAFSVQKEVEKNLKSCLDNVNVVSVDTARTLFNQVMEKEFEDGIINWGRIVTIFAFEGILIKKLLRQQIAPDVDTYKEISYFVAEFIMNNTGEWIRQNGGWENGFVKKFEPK
# Experiments:
# Assay in all cases: fluorescence polarisation
# [1] = target: T1, BFL-1ΔC C55 (N-His6 BFL-1ΔC (1–151) …)
# [2] = target: T1, BFL-1ΔC C55 (N-His6 BFL-1ΔC (1–151) …); remark: listed apart in the source
# [3] = target: T1, BFL-1ΔC C55 (N-His6 BFL-1ΔC (1–151) …); remark: listed apart in the source
# [4] = target: T1, BFL-1ΔC C55 (N-His6 BFL-1ΔC (1–151) …); remark: listed apart in the source
# [5] = target: T1, BFL-1ΔC C55 (N-His6 BFL-1ΔC (1–151) …); remark: listed apart in the source
binder,measurement,setting,value
{FITC}-DIIRNIARHLAQVGDSMDRSI [FITC-BID BH3 peptide],Kd,[1],18.4 nM
same,Kd,[2],1.6 nM
same,Kd,[3],3.3 nM
same,Kd,[4],12.3 nM
same,Kd,[5],24.3 nM
